Legend:
[1] = target: CS receptor on human cells (HepG2 hepatoma cells; human liver metastases of colorectal cancer) (human); assay: indirect immunofluorescence on frozen sections of human liver MCC from six patients
[2] = target: CS receptor on rat cells (rat liver sections; rat hepatoma H4IIE) (rat); assay: cell-based or functional assay
[3] = target: CS receptor on human cells (HepG2 hepatoma cells; human liver metastases of colorectal cancer) (human); assay: cell-based or functional assay
[4] = target: CS receptor on mouse colorectal carcinoma MCA26 cells (mouse); assay: cell-based or functional assay
HL60 cells = assay: Cytotoxicity assay with 5-FC in HL60 cells; assay type: cell-based; conditions: HL-60, 0.64 μM protein 4 hrs, protein removed (washed), 1 mM 5-FC
HepG2 cells [5] = assay: Persistent effect on 5-FC cell killing of HepG2 cells; assay type: cell-based, human; conditions: HepG2, 0.5 μM protein 4 hrs, then 5-FC at intervals
Procedure: FIG. 7. Persistent effect of CD-CS on cell killing of HepG2 cells. HepG2 cells were treated with 0.8 μM of CD-CS or with CD as a control for 4 hr. Cells was washed with fresh medium and cultured in the regular medium. Cultures were split once every 6 days. At different time intervals, cells were treated with 1 mM 5-FC. Cell viability was counted 4 days thereafter. Each point represents an average of three independent experiments.
HepG2 cells were treated with 0.5 μM of CD-CS or CD for 4 hrs and the recombinant proteins were removed from the medium and the cells were maintained in fresh medium thereafter. At different time intervals, cells were treated with 5-FC. Sustained cell killing was observed even 28 days after the removal of the recombinant protein (FIG. 7).

[6] = Cytosine deaminase enzymatic activity assay (conversion of [3H]cytosine to [3H]uracil); assay type: biochemical; conditions: purified recombinant protein
Procedure: Crude cell extracts were prepared by sonicating cells in a buffer (50 mM Na phosphate, pH 7.8 and 0.3 M NaCl) followed by centrifugation. Cytosine deaminase activity was determined by measuring the production of uracil in a reaction mixture (50 μl) containing 5 mM, 6-[^3H]cytosine (0.45 Ci/mol), 50 mM Tris-HCl pH 7.8, 1 mM DTT, 1 mM EDTA and cellular crude extract (10-20 μg/ml) or eluted fractions. After 1-2 hour of incubation at 37° C., 10 μl aliquots were withdrawn and analyzed by thin layer chromatography (Silica Gel 60, Selecto Scientific, Norcross, Ga.). Chromatograms were developed in 1-butanol /water (86/14, v/v). Positions of cytosine and uracil were identified by […]. The corresponding spots for cytosine and uracil were cut out and radioactivities were determined in a scintillation counter. In some cases, 6-[3H] 5-FC (4.0 Ci/mmol) was used as a substrate in the assay.

HepG2 cells [7] = assay type: cell-based, human; conditions: HepG2, 0.64 μM protein 4 hrs, 1 mM 5-FC, viability after 4 days

full-length recombinant CS protein (malarial circumsporozoite protein) (from UniProt P19597 27-396) (ligand)
positive staining cells [1]: > 90%

CD-CS fusion protein (cytosine deaminase fused to repeat-deleted malarial circumsporozoite protein, encoded by pCD5-73.15.5) (from UniProt P19597 27-29; P25524 2-427; P19597 30-396)
LD50 of CD-CS-mediated cell killing, rat hepatoma H-4-II-E [2]: 0.22 µM | LD50 of CD-CS-mediated cell killing, HepG2 [3]: 0.22 µM | LD50 of CD-CS-mediated cell killing, MCA26 [4]: 0.22 µM

B1: CD: recombinant Escherichia coli cytosine deaminase with 6 histidine residues at the C-terminus (protein, UniProt P25524 2-427, looked up)
Cytosine deaminase: SNNALQTIINARLPGEEGLWQIHLQDGKISAIDAQSGVMPITENSLDAEQGLVIPPFVEPHIHLDTTQTAGQPNWNQSGTLFEGIERWAERKALLTHDDVKQRAWQTLKWQIANGIQHVRTHVDVSDATLTALKAMLEVKQEVAPWIDLQIVAFPQEGILSYPNGEALLEEALRLGADVVGAIPHFEFTREYGVESLHKTFALAQKYDRLIDVHCDEIDDEQSRFVETVAALAHHEGMGARVTASHTTAMHSYNGAYTSRLFRLLKMSGINFVANPLVNIHLQGRFDTYPKRRGITRVKEMLESGINVCFGHDDVFDPWYPLGTANMLQVLHMGLHVCQLMGYGQINDGLNLITHHSARTLNLQDYGIAAGNSANLIILPAENGFDALRRQVPVRYSVRGGKVIASTQPAQTTVYLEQPEAIDYKR
modifications: C-terminal His6 tag
notes: recombinant Escherichia coli cytosine deaminase with 6 histidine residues at the C-terminus
cell death upon subsequent addition of 5-FC (HL60 cells): failed to induce cell death | cell killing (basal level) (HepG2 cells [5]): < 10% | specific activity, conversion of [3H]cytosine to [3H]uracil [6]: 3,308 nmol/min/mg protein | sensitivity of protein-treated cells to 5-FC (HepG2 cells [7]; unwashed): sensitive | sensitivity of protein-pretreated cells to 5-FC / cell killing (HepG2 cells [7]; washed): could not

From patent publication US20040067880A1 (priority 2002, published 2004)
